Assay results: article doi:10.1101/2021.08.08.454510

Molecular target: fluorophore-conjugated GCK peptide (aa 59-74), wild type (human) (UniProt P35557)
Test: fluorescence polarisation

## TNKS ARC1-5 with a C-terminal (His)6 tag (from UniProt O95271 1-1327) (domain or fragment)
  Kd: 500 nM
